We go through six molecules from patent US20220010008A1.

Test [1] addresses recombinant human IL-5 protein (human) (UniProt P05113). Description: SPR, human IL-5 immobilized on chip, 1:1 fit. (In SPR one partner is held on a chip, and binding of the other changes the refractive index at the surface.)
For test [2] the target is unchanged. As to the kind of experiment: FACS, biotin-IL-5 bound to CHOK1 hIL-5Ra/CSF2RB cells with Ab 0.0533 nM.
Test [3] shares this target. Description: FACS, biotin-IL-5 bound to CHOK1 hIL-5Ra/CSF2RB cells with Ab 0.0004 nM. (In general: In flow cytometry, cells or beads pass a laser one at a time.)
Test [4] shares this target. Description: FACS, biotin-IL-5 bound to CHOK1 hIL-5Ra/CSF2RB cells with Ab 6.6667 nM.
Test [5] has the same target. As to the kind of experiment: FACS, biotin-IL-5 bound to CHOK1 hIL-5Ra/CSF2RB cells with Ab 0.0107 nM.
Test [6] shares this target. Description: FACS, biotin-IL-5 bound to CHOK1 hIL-5Ra/CSF2RB cells with Ab 0.2667 nM.
The target is the same in test [7]. As to the kind of experiment: FACS, biotin-IL-5 bound to CHOK1 hIL-5Ra/CSF2RB cells with Ab 0.0021 nM.
The target is the same in test [8]. Description: FACS, biotin-IL-5 bound to CHOK1 hIL-5Ra/CSF2RB cells with Ab 33.3333 nM.
Test [9] has the same target. Description: cell-based or functional assay.
The target is the same in test [10]. Description: FACS, biotin-IL-5 bound to CHOK1 hIL-5Ra/CSF2RB cells with Ab 1.3333 nM.
For test [11] the target is unchanged. Description: SPR, human IL-5 immobilized on CM5 chip, chimeric antibody as analyte, 1:1 global fit.

Several values for one entry are separate records, joined by “and”; a condition that tells them apart may be missing. Identical values can stand only once.

B1: 147D7H2 (murine hybridoma lead antibody) (antibody, V domains shown)
VH: EVQLQQSGAELVKPGASVKLSCTASGFNIKDYFIHWVKQRTEQGLEWIGRIDTEDGETKYAPKFQGKATITIDTSSNTAYLYFSSLTSEDTAMYYCARYGNYVAMDYWGQGTSVTVSS
VL: QIVLTQSPALMSASPGEKVTMTCSASSSVSYMFWYQQKPSSSPKPWIYLTSKLASGVPARFSGSGSGTSYSLTISSVEAEDAATYYCQQWNSNPYTFGGGTKLEIK
Broadly, the Kd is the constant that tells how readily two partners part at equilibrium. As usually defined, the koff is a measure of how fast the partners let go of each other. A word on the kon: it is the rate constant with which the complex forms. On to B1, for which, in test [1], the Kd was less than 50.4 pM, the koff is less than 1e-05 s⁻¹ and the kon is 198000 M⁻¹ s⁻¹. The Fluorescence intensity in test [2] stood at 90. Besides, the Fluorescence intensity in [3] amounted to 96. The Fluorescence intensity in [4] was 36. In addition, the Fluorescence intensity in [5] worked out at 88. Besides, in test [6], the Fluorescence intensity was 74. Further, the Fluorescence intensity in [7] is 93. Further, in test [8], the Fluorescence intensity is 31. Besides, in test [9], the RLU, CTLL-2 cell proliferation stimulated by IL-5, Ab conc. 0.000170667 nM is 56800 RLU and 61000 RLU; the RLU, CTLL-2 cell proliferation stimulated by IL-5, Ab conc. 0.000853333 nM was 56400 RLU and 57300 RLU; the RLU, CTLL-2 cell proliferation stimulated by IL-5, Ab conc. 0.004266667 nM was 50600 RLU and 55900 RLU; the RLU, CTLL-2 cell proliferation stimulated by IL-5, Ab conc. 0.02133333 nM is 49000 RLU and 45200 RLU. For the same molecule, in test [9], the RLU, CTLL-2 cell proliferation stimulated by IL-5, Ab conc. 0.1066667 nM was 26500 RLU and 26300 RLU; the RLU, CTLL-2 cell proliferation stimulated by IL-5, Ab conc. 0.5333334 nM was 16700 RLU and 15200 RLU; the RLU, CTLL-2 cell proliferation stimulated by IL-5, Ab conc. 2.666667 nM was 13700 RLU and 14400 RLU; the RLU, CTLL-2 cell proliferation stimulated by IL-5, Ab conc. 13.33333 nM was 12900 RLU and 13500 RLU. For the same molecule, in test [9], the RLU, CTLL-2 cell proliferation stimulated by IL-5, Ab conc. 66.66666 nM was 10700 RLU and 11300 RLU; the RLU, CTLL-2 cell proliferation stimulated by IL-5, Ab conc. 3.41333E-05 nM is 58900 RLU and 59800 RLU; the RLU, TF-1 cell proliferation stimulated by IL-5, Ab conc. 0.00001 nM was 111000 RLU and 112000 RLU; the RLU, TF-1 cell proliferation stimulated by IL-5, Ab conc. 0.00003 nM was 111000 RLU and 113000 RLU. Besides, in test [9], the RLU, TF-1 cell proliferation stimulated by IL-5, Ab conc. 0.00017 nM was 116000 RLU and 112000 RLU; the RLU, TF-1 cell proliferation stimulated by IL-5, Ab conc. 0.00085 nM turned out to be 105000 RLU; the RLU, TF-1 cell proliferation stimulated by IL-5, Ab conc. 0.00427 nM was 90300 RLU and 86300 RLU; the RLU, TF-1 cell proliferation stimulated by IL-5, Ab conc. 0.02133 nM is 72200 RLU and 55900 RLU. Besides, in test [9], the RLU, TF-1 cell proliferation stimulated by IL-5, Ab conc. 0.10667 nM is 42300 RLU and 43600 RLU; the RLU, TF-1 cell proliferation stimulated by IL-5, Ab conc. 0.53333 nM is 36200 RLU and 39400 RLU; the RLU, TF-1 cell proliferation stimulated by IL-5, Ab conc. 2.66667 nM is 39900 RLU and 38100 RLU; the RLU, TF-1 cell proliferation stimulated by IL-5, Ab conc. 13.33333 nM is 35500 RLU and 37500 RLU. In [10], the Fluorescence intensity is 55.

B2: 69F2F3 (murine hybridoma lead antibody) (antibody, V domains shown)
VH: QVQLKQSGPGLVQPSQSLSITCTVSGFSLSNYGVHWVRQSPGKGLEWLGVIWSGGSTDYNAAFKSRLSITKDNSKSQVVFRMNSLQTDDTATYYCARNKDFLDYWGQGTKFTVSS
VL: DIVMTQSPSSLTVTAGEKVTMTCKSSQGLLNSGNQKNYLTWYQQKPGQPPKLLIYWASTRESGVPDRFTGSGSGTDFTLTISSVQAEDLAVYYCQNDYHFPLTFGAGTKLELK
With B2, in [1], the dissociation constant (Kd) is 22.1 pM, the koff was 8.14e-06 s⁻¹ and the kon came to 368000 M⁻¹ s⁻¹.

B3: 69F2F3 mouse-human chimeric antibody (antibody, human IgG4, V domains shown)
VH: QVQLKQSGPGLVQPSQSLSITCTVSGFSLSNYGVHWVRQSPGKGLEWLGVIWSGGSTDYNAAFKSRLSITKDNSKSQVVFRMNSLQTDDTATYYCARNKDFLDYWGQGTKFTVSS
VL: DIVMTQSPSSLTVTAGEKVTMTCKSSQGLLNSGNQKNYLTWYQQKPGQPPKLLIYWASTRESGVPDRFTGSGSGTDFTLTISSVQAEDLAVYYCQNDYHFPLTFGAGTKLELK
On to B3, for which, in test [11], the Kd is less than 120 pM, the koff is less than 1e-05 s⁻¹ and the kon was 81900 M⁻¹ s⁻¹.

B4: 154F10G8 (murine hybridoma lead antibody) (antibody, V domains shown)
VH: QVQLQQPGAELVKPGASVKLSCKASGYTFTSYWITWVKQRPGQGLEWIGDIYPGSGSTFYNEKFKSEATLTVDTSSSTAYMQLSSLTSEDSAVFYCSTETTLGYWGQGTTLTVSS
VL: DVLMTQTPLSLPVSLGDQASISCRSSQSIVHNNGNTYLEWYLQKPGQSPKLLIYKVSNRFSGVPDRFSGSGSGTDFTLKISRVEAEDLGVYYCFQGSHVPFTFGSGTKLEIK
Consider B4, for which, in test [1], the Kd came to 158 pM, the koff was found to be 6.65e-05 s⁻¹ and the kon turned out to be 422000 M⁻¹ s⁻¹. In addition, in [2], the Fluorescence intensity was found to be 92. Also, the Fluorescence intensity in [3] came to 90. The Fluorescence intensity in test [4] was 43. Besides, the Fluorescence intensity in [5] was found to be 91. Besides, the Fluorescence intensity in test [6] stood at 86. Also, the Fluorescence intensity in [7] was determined as 91. Besides, the Fluorescence intensity in [8] came to 34. Moreover, in test [9], the RLU, CTLL-2 cell proliferation stimulated by IL-5, Ab conc. 0.000170667 nM was 57900 RLU and 56300 RLU; the RLU, CTLL-2 cell proliferation stimulated by IL-5, Ab conc. 0.000853333 nM is 64800 RLU and 54500 RLU; the RLU, CTLL-2 cell proliferation stimulated by IL-5, Ab conc. 0.004266667 nM is 64200 RLU and 64300 RLU; the RLU, CTLL-2 cell proliferation stimulated by IL-5, Ab conc. 0.02133333 nM was 56900 RLU and 52300 RLU. In test [9], the RLU, CTLL-2 cell proliferation stimulated by IL-5, Ab conc. 0.1066667 nM is 36100 RLU and 30000 RLU; the RLU, CTLL-2 cell proliferation stimulated by IL-5, Ab conc. 0.5333334 nM was 21500 RLU and 20200 RLU; the RLU, CTLL-2 cell proliferation stimulated by IL-5, Ab conc. 2.666667 nM is 19700 RLU and 17100 RLU; the RLU, CTLL-2 cell proliferation stimulated by IL-5, Ab conc. 13.33333 nM is 16200 RLU and 14700 RLU. In [9], the RLU, CTLL-2 cell proliferation stimulated by IL-5, Ab conc. 66.66666 nM is 11500 RLU and 10900 RLU; the RLU, CTLL-2 cell proliferation stimulated by IL-5, Ab conc. 3.41333E-05 nM was 58700 RLU and 61300 RLU; the RLU, TF-1 cell proliferation stimulated by IL-5, Ab conc. 0.00001 nM is 108000 RLU and 113000 RLU; the RLU, TF-1 cell proliferation stimulated by IL-5, Ab conc. 0.00003 nM was 110000 RLU and 115000 RLU. Besides, in test [9], the RLU, TF-1 cell proliferation stimulated by IL-5, Ab conc. 0.00017 nM was 114000 RLU and 108000 RLU; the RLU, TF-1 cell proliferation stimulated by IL-5, Ab conc. 0.00085 nM was 99300 RLU and 103000 RLU; the RLU, TF-1 cell proliferation stimulated by IL-5, Ab conc. 0.00427 nM was 76100 RLU and 79700 RLU; the RLU, TF-1 cell proliferation stimulated by IL-5, Ab conc. 0.02133 nM was 54800 RLU and 57500 RLU. Also, in test [9], the RLU, TF-1 cell proliferation stimulated by IL-5, Ab conc. 0.10667 nM was 42100 RLU and 51500 RLU; the RLU, TF-1 cell proliferation stimulated by IL-5, Ab conc. 0.53333 nM was 40600 RLU and 42300 RLU; the RLU, TF-1 cell proliferation stimulated by IL-5, Ab conc. 2.66667 nM is 34500 RLU and 42000 RLU; the RLU, TF-1 cell proliferation stimulated by IL-5, Ab conc. 13.33333 nM was 33800 RLU and 35300 RLU. Further, the Fluorescence intensity in [10] amounted to 66.

B5: 102A2E11B6 (murine hybridoma lead antibody) (antibody, V domains shown)
VH: QVQLRQSGPGLVQPSQSLSITCTVSGFSLTSYGVHWVRQSPGKGLEWLGVIWSGGSTDYNAVFMSRLSISKDSSKSQVFFKMNSLQTDDTAIYYCARNRYVLDYWGQGTSVTVSS
VL: DIVMTQSPSSLSVSAGERVTMRCKSSQSLLTSGDQKNHLAWYQQKPGQPPKLLIYGASTRESGVPDRFTGSGSGTDFTLTITSVQAEDLAVYYCQNDHSFPLTFGAGTKLELK
In the case of B5, in test [1], the Kd worked out at 63 pM, the koff worked out at 2.32e-05 s⁻¹ and the kon was found to be 369000 M⁻¹ s⁻¹.

B6: 102A2E11B6 mouse-human chimeric antibody (antibody, human IgG4, V domains shown)
VH: QVQLRQSGPGLVQPSQSLSITCTVSGFSLTSYGVHWVRQSPGKGLEWLGVIWSGGSTDYNAVFMSRLSISKDSSKSQVFFKMNSLQTDDTAIYYCARNRYVLDYWGQGTSVTVSS
VL: DIVMTQSPSSLSVSAGERVTMRCKSSQSLLTSGDQKNHLAWYQQKPGQPPKLLIYGASTRESGVPDRFTGSGSGTDFTLTITSVQAEDLAVYYCQNDHSFPLTFGAGTKLELK
Take B6: in test [11], the Kd came to 221 pM, the koff amounted to 2.73e-05 s⁻¹ and the kon stood at 124000 M⁻¹ s⁻¹.
